The source of these data is patent US20130115676.

Holding throughout (assay): cleavage_in_vitro
Data set [1] concerns T1, AvrII-HF Y104F (Anabaena variabilis).
T1 sequence: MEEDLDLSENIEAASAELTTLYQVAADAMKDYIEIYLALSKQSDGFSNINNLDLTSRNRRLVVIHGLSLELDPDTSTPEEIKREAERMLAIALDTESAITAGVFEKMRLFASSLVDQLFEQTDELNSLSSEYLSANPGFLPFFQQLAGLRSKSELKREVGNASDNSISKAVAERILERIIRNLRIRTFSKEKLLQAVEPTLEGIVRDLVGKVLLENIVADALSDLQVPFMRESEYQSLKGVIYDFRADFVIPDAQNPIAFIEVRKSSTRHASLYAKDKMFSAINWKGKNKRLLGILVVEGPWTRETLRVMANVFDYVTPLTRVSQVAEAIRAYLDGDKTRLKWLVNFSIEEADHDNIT
The conditions noted are these: NEB4, 10 mM Mg acetate, 37 C.

In data set [2] the test system is T2, AvrII (Anabaena variabilis).
T2 sequence: T1 sequence with F104Y
Particulars: NEB1, 10 mM MgCl2, 37 C.

Data set [3] deals with T3, SalI (Streptomyces albus G) (UniProt Q53608).
T3 sequence: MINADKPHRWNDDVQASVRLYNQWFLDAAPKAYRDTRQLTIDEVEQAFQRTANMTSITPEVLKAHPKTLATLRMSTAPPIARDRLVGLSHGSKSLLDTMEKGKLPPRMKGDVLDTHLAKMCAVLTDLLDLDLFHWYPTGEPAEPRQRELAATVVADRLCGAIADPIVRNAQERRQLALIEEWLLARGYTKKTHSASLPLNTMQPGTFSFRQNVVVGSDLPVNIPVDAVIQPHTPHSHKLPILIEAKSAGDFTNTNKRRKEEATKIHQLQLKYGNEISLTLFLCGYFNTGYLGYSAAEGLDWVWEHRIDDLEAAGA
Particulars: NEB3, 10 mM MgCl2, 37 C; Table 10 gives FI 4.

Data set [4] has as its target T4, SalI-HF R107A (Streptomyces albus G) (UniProt Q53608).
T4 sequence: T3 sequence with R107A
The conditions noted are these: NEB2, 10 mM MgCl2, 37 C; Table 10 gives FI >=2000.

Data set [5] deals with T5, PvuII-HF T46G (Proteus vulgaris) (UniProt P23657).
T5 sequence: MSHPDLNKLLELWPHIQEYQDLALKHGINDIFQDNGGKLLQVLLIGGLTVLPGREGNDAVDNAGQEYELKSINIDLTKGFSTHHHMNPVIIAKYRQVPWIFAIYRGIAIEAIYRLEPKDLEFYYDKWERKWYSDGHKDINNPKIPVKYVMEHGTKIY
Particulars: NEB4, 10 mM Mg acetate, 37 C.

The next data set deals with T6, PvuII (Proteus vulgaris) (UniProt P23657).
T6 sequence: T5 sequence with G46T
The conditions noted are these: NEB1, 10 mM MgCl2, 37 C.

The subject of data set [6] is T7, BspQI-HF K279P/R388F (Bacillus sphaericus).
T7 sequence: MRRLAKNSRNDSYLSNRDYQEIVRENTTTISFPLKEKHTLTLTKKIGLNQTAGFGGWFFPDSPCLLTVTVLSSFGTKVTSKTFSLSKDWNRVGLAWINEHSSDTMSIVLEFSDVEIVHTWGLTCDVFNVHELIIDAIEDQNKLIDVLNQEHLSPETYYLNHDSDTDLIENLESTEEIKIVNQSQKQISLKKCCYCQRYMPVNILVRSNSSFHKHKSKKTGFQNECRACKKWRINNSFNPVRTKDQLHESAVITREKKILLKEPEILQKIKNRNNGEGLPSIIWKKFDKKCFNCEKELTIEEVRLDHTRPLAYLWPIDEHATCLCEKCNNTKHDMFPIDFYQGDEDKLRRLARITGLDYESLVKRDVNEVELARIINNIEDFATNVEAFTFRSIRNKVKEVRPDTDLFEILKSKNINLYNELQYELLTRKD
The conditions noted are these: NEB4, 10 mM Mg acetate, 50 C.

Where a chain is given by its changes, count along the chain named.

Regarding T7 DNA, the activity (fidelity index) in data set [1] is greater than 1000; in data set [2], 64.
As to lambda DNA HindIII-digested, the activity (fidelity index) in data set [3] was 32; in data set [4], greater than 64000.
Take pBR322: the activity (fidelity index) in data set [5] is 500; with PvuII (Proteus vulgaris), 250.
Take pUC19: the activity (fidelity index) in data set [6] is greater than 4000.
